Experimental data published in the supplement of paper PMC7877785.
± gives the uncertainty stated by the source.

Assay: self-splicing fitness, log relative to wild type (ln ratio); higher = more splicing; Tetrahymena group I intron in knt gene, E. coli kanamycin selection, DiMSum; sequences stand for … in CUCUCU…GGAGGGAAAAGUUAUCAGGCAUGCACCUGGUAGCUAGUCUUUAAACCAAUAGAUUGCAUCGGUUUAAAAGGCAAGACCGUCAAAUUGCGGGAAAGGGGUCAACAGCCGUUCAGUACCAAGUCUCAGGGGAAACUUUGAGAUGGCCUUGCAAAGGGUAUGGUAAUAAGCUGACGGACAUGGUCCUAACCACGCAGCCAAGUCCUAAGUCAACAGAUCUUCUGUUGAUAUGGAUGCAGUUCACAGACUAAAUGUCGGUCGGGGAAGAUGUAUUCUUCUCAUAAGAUAUAGUCGGACCUCUCCUUAAUGGGAGCUAGCGGAUGAAGUGAUGCAACACUGGAGCCGCUGGGAACUAAUUUGUAUGCGAAAGUAUAUUGAUUAGUUUUGGAGUACUCGUGGUCG
Outline: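 A randomised library covering all eight P1ex-region intron nucleotides was built with the intron in the knt kanamycin-resistance gene on pET-22b(+) and held in E. coli BL21(DE3). Cells were grown overnight at 37°C or 30°C on LB agar, with or without 25 μg/mL kanamycin, plus 100 μg/mL carbenicillin, 50 μM IPTG and 0.2% rhamnose, and pooled colonies were amplicon-sequenced on an Illumina HiSeq 2500. DiMSum fitness is the error-weighted combination of wild-type-normalised replicate fold changes, kanamycin versus none.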

| Sequence | self-splicing fitness (ln) (30 °C) | self-splicing fitness (ln) (37 °C) |
| --- | --- | --- |
| ACACAGCAAUAUUACGCGAA | -2.47 ± 0.12 | -1.4 ± 0.12 |
| ACACAGCAAUAUUACGCUGC | -2.18 ± 0.16 | -1.14 ± 0.15 |
| ACACAGCAAUAUUACGGAAA | -3.13 ± 0.26 | -2.5 ± 0.22 |
| ACACAGCAAUAUUACGGACA | -1.63 ± 0.095 | -1.04 ± 0.089 |
| ACACAGCAAUAUUACGGCGA | -0.436 ± 0.086 | -0.165 ± 0.09 |
| ACACAGCAAUAUUACGGGCA | -1.48 ± 0.078 | -0.0778 ± 0.091 |
| ACACAGCAAUAUUACGGGCC | -3.37 ± 0.19 | -2.11 ± 0.18 |
| ACACAGCAAUAUUACGGGGG | -2.9 ± 0.14 | -2.45 ± 0.15 |
| ACACAGCAAUAUUACGGUCA | -0.813 ± 0.071 | 0.0237 ± 0.077 |
| ACACAGCAAUAUUACGUACA | -1.05 ± 0.059 | -0.954 ± 0.068 |
| ACACAGCAAUAUUACGUACG | -1.19 ± 0.067 | -0.925 ± 0.081 |
| ACACAGCAAUAUUACGUGCC | -1.71 ± 0.12 | -0.549 ± 0.093 |
| ACACAGCAAUAUUACGUUGA | -1.91 ± 0.091 | -1.92 ± 0.11 |
| ACACAGCAAUAUUACGUUGC | -3.87 ± 0.11 | -2.58 ± 0.12 |
| ACACAGCAAUAUUACGUUUG | -2.67 ± 0.067 | -1.59 ± 0.081 |
| ACAGAGCAAUAUUACGAGAC | -3.23 ± 0.37 | -2.67 ± 0.31 |
| ACAGAGCAAUAUUACGAGUU | -3.3 ± 0.2 | -1.8 ± 0.14 |
| ACAGAGCAAUAUUACGAUAG | -2.78 ± 0.26 | -3.02 ± 0.35 |
| ACAGAGCAAUAUUACGCAGA |  | -2.25 ± 0.33 |
| ACAGAGCAAUAUUACGCAGC |  | -2.25 ± 0.33 |
| ACAGAGCAAUAUUACGCGAA | -3.58 ± 0.25 | -1.21 ± 0.18 |
| ACAGAGCAAUAUUACGCGCA | -3.09 ± 0.26 | -0.798 ± 0.18 |
| ACAGAGCAAUAUUACGCGGG | -4.91 ± 0.46 | -3.54 ± 0.37 |
| ACAGAGCAAUAUUACGCUGC | -4.55 ± 0.46 |  |

| Sequence | self-splicing fitness (ln) (30 °C) | self-splicing fitness (ln) (37 °C) |
| --- | --- | --- |
| ACAGAGCAAUAUUACGGACA | -2.99 ± 0.3 | -2.45 ± 0.25 |
| ACAGAGCAAUAUUACGGAGC | -4.22 ± 0.34 | -3.15 ± 0.25 |
| ACAGAGCAAUAUUACGGCAU | -3.25 ± 0.23 | -0.707 ± 0.17 |
| ACAGAGCAAUAUUACGGGCG | -3.27 ± 0.19 | -1.25 ± 0.2 |
| ACAGAGCAAUAUUACGUAAA | -3.71 ± 0.16 | -2.09 ± 0.13 |
| ACAGAGCAAUAUUACGUAGA | -4.17 ± 0.37 | -2.19 ± 0.21 |
| ACAGAGCAAUAUUACGUCAA | -2.04 ± 0.21 | -3.16 ± 0.3 |
| ACAGAGCAAUAUUACGUCCU | -1.35 ± 0.21 | -0.399 ± 0.2 |
| ACAGAGCAAUAUUACGUCUA | -3.22 ± 0.33 | -1.73 ± 0.29 |
| ACAGAGCAAUAUUACGUCUC | -3.77 ± 0.19 | -2.4 ± 0.17 |
| ACAGAGCAAUAUUACGUGGG | -2.64 ± 0.12 | -2.4 ± 0.16 |
| ACAGAGCAAUAUUACGUGUA | -3.11 ± 0.15 | -2.62 ± 0.14 |
| ACAGAGCAAUAUUACGUUAG | -3.09 ± 0.16 | -2.87 ± 0.2 |
| ACAUAGCAAUAUUACGAGUA | -3.54 ± 0.43 | -1.8 ± 0.23 |
| ACAUAGCAAUAUUACGAUGA | -0.75 ± 0.072 | -0.575 ± 0.086 |
| ACAUAGCAAUAUUACGCAGC |  | -3.15 ± 0.31 |
| ACAUAGCAAUAUUACGCAGG | -2.73 ± 0.15 | -2.23 ± 0.17 |
| ACAUAGCAAUAUUACGCCGU | -2.02 ± 0.17 | -1.23 ± 0.2 |
| ACAUAGCAAUAUUACGCGAA | -3.3 ± 0.13 | -1.03 ± 0.098 |
| ACAUAGCAAUAUUACGCGAG | -1.01 ± 0.07 | -0.654 ± 0.079 |
| ACAUAGCAAUAUUACGCGUA | -2.19 ± 0.091 | -0.613 ± 0.086 |
| ACAUAGCAAUAUUACGCUGU | -3.64 ± 0.18 | -2.69 ± 0.22 |
| ACAUAGCAAUAUUACGCUUA | -1.76 ± 0.19 | -1.55 ± 0.17 |
| ACAUAGCAAUAUUACGCUUU | -2.82 ± 0.16 | -2.53 ± 0.32 |

| Sequence | self-splicing fitness (ln) (30 °C) | self-splicing fitness (ln) (37 °C) |
| --- | --- | --- |
| ACAUAGCAAUAUUACGGAAU | -3.72 ± 0.19 | -2.44 ± 0.19 |
| ACAUAGCAAUAUUACGGACG | -1.32 ± 0.1 | -0.653 ± 0.14 |
| ACAUAGCAAUAUUACGGAUA | -1.75 ± 0.17 | -2.34 ± 0.21 |
| ACAUAGCAAUAUUACGGCCA | -0.771 ± 0.12 | -0.572 ± 0.13 |
| ACAUAGCAAUAUUACGGCGC | -1.1 ± 0.083 | -0.521 ± 0.11 |
| ACAUAGCAAUAUUACGGCUG | -0.175 ± 0.067 | -0.366 ± 0.095 |
| ACAUAGCAAUAUUACGGGAG | -2.13 ± 0.11 | -1.52 ± 0.11 |
| ACAUAGCAAUAUUACGGGCC |  | -1.59 ± 0.2 |
| ACAUAGCAAUAUUACGGGUG | -1.25 ± 0.046 | -0.515 ± 0.064 |
| ACAUAGCAAUAUUACGUACU | -0.24 ± 0.077 | 0.46 ± 0.12 |
| ACAUAGCAAUAUUACGUAUC | -3.37 ± 0.19 | -1.62 ± 0.2 |
| ACAUAGCAAUAUUACGUCAU | -3.16 ± 0.1 | -2.35 ± 0.13 |
| ACAUAGCAAUAUUACGUCUU | -1.33 ± 0.077 | -0.302 ± 0.084 |
| ACAUAGCAAUAUUACGUGAC | -3.15 ± 0.15 | -2.16 ± 0.15 |
| ACAUAGCAAUAUUACGUUAG | -3.66 ± 0.17 | -1.66 ± 0.14 |
| ACAUAGCAAUAUUACGUUCG | -1.04 ± 0.075 | -0.65 ± 0.1 |
| ACAUAGCAAUAUUACGUUUU | -3.76 ± 0.16 | -2.59 ± 0.17 |
| ACCAAGCAAUAUUACGAAAC | -4.33 ± 0.34 | -1.71 ± 0.25 |
| ACCAAGCAAUAUUACGAAGG | -2.34 ± 0.12 | -1.09 ± 0.14 |
| ACCAAGCAAUAUUACGACUA | -0.894 ± 0.099 | -0.585 ± 0.093 |
| ACCAAGCAAUAUUACGAUGC | -2.45 ± 0.088 | -0.944 ± 0.11 |
| ACCAAGCAAUAUUACGCAAC | -3.4 ± 0.38 | -1.01 ± 0.17 |
| ACCAAGCAAUAUUACGCACC | -0.532 ± 0.078 | -0.199 ± 0.11 |
| ACCAAGCAAUAUUACGCACU | -0.396 ± 0.07 | 0.498 ± 0.085 |

| Sequence | self-splicing fitness (ln) (30 °C) | self-splicing fitness (ln) (37 °C) |
| --- | --- | --- |
| ACCAAGCAAUAUUACGCCUU | -2.87 ± 0.15 | -1.97 ± 0.15 |
| ACCAAGCAAUAUUACGCGAA | -3.09 ± 0.13 | -1.65 ± 0.1 |
| ACCAAGCAAUAUUACGCGAU | -2.1 ± 0.079 | -1.17 ± 0.11 |
| ACCAAGCAAUAUUACGCGGG | -3.38 ± 0.11 | -2.18 ± 0.1 |
| ACCAAGCAAUAUUACGCUAU | -1.66 ± 0.087 | -0.775 ± 0.098 |
| ACCAAGCAAUAUUACGCUCU | -0.714 ± 0.06 | -0.02 ± 0.073 |
| ACCAAGCAAUAUUACGGAUC | -3.49 ± 0.14 | -1.28 ± 0.1 |
| ACCAAGCAAUAUUACGGCAG | -3.19 ± 0.16 | -1.9 ± 0.17 |
| ACCAAGCAAUAUUACGGGAA | -2.85 ± 0.13 | -2.19 ± 0.1 |
| ACCAAGCAAUAUUACGGUCU | -2.13 ± 0.08 | -0.69 ± 0.066 |
| ACCAAGCAAUAUUACGUAAU | -2.74 ± 0.098 | -0.681 ± 0.078 |
| ACCAAGCAAUAUUACGUCGA | -2.16 ± 0.12 | -1.83 ± 0.1 |
| ACCAAGCAAUAUUACGUGCG | -1.03 ± 0.052 | -0.972 ± 0.069 |
| ACCAAGCAAUAUUACGUGUA | -2.28 ± 0.09 | -1.37 ± 0.096 |
| ACCAAGCAAUAUUACGUUAC | -3.66 ± 0.2 | -1.76 ± 0.14 |
| ACCAAGCAAUAUUACGUUCA | -1.65 ± 0.11 | -1.18 ± 0.1 |
| ACCAAGCAAUAUUACGUUGC | -2.65 ± 0.086 | -0.992 ± 0.075 |
| ACCCAGCAAUAUUACGCCGU | -1.37 ± 0.064 | -0.415 ± 0.081 |
| ACCCAGCAAUAUUACGCGAC | -2.48 ± 0.12 | -1.22 ± 0.13 |
| ACCCAGCAAUAUUACGCGGA | -0.326 ± 0.05 | 0.218 ± 0.064 |
| ACCCAGCAAUAUUACGGAAA | -0.977 ± 0.083 | -0.213 ± 0.083 |
| ACCCAGCAAUAUUACGGAUA | -0.912 ± 0.08 | -0.448 ± 0.083 |
| ACCCAGCAAUAUUACGGAUG | -1.57 ± 0.067 | -0.939 ± 0.083 |
| ACCCAGCAAUAUUACGGGGU | -3.58 ± 0.14 | -3 ± 0.14 |
